# Test results taken from patent US20050100540A1, “Platelet-activating factor acetylhydrolase” (priority 1993, published 2005).
# Assays:
# [1] = test system: PAF-induced pleurisy; assay: PAF-induced pleurisy (Evans blue vascular leakage); format: in vivo, rat; conditions: 300 μl PAF-AH IV 15 minutes before 2.0 nmol PAF into pleural space, 1 hour
# [2] = Degradation of oxidized phospholipid by recombinant PAF-AH; format: biochemical; conditions: oxidized phospholipid with oxidatively cleaved sn-2 fatty acid
# [3] = test system: zymosan A-induced foot edema; assay: Zymosan A-induced rat foot edema; format: in vivo; conditions: 2000 U IV, foot volume after 2 hours
# Experimental: Six to eight-week-old female Long Evans rats (Charles River, Wilmington, Mass.), weighing 180-200 grams, were used for all experiments. Prior to experimental manipulations, animals were anesthetized with a mixture of the anesthetics Ketaset (Fort Dodge laboratories, Fort Dodge, Iowa), Rompun (Miles, Shawnee Mission, Kans.), and Ace Promazine (Aveco, Fort Dodge, Iowa) administered subcutaneously at approximately 2.5 mg Ketaset, 1.6 mg Rompun, 0.2 mg Ace Promazine per animal per dose. Edema was induced in the foot by administration of either PAF or zymosan as follows. […] Animals received 50 μl PAF (final dose of 0.96 nmoles) subcutaneously between the hind foot pads, and edema was assessed after 1 hour and again after 2 hours in some experiments. […] Animals received 50 μl of zymosan (final dose of 500 μg) subcutaneously between the hind foot pads and edema was assessed after 2 hours.
# Edema was quantitated by measuring the foot volume immediately prior to administration of PAF or zymosan and at indicated time point post-challenge with PAF or zymosan. Edema is expressed as the increase in foot volume in milliliters. […]
# (§1) Rats (N=4 per group) were pretreated IV with either PAF-AH (2000 U in 300 μl carrier) or carrier alone. Fifteen minutes after pretreatment, groups received either PAF or zymosan A, and foot volume was assessed after 1 and 2 hours, respectively.
# [4] = test system: PAF-induced foot edema; assay: PAF-induced rat foot edema model; format: in vivo
# Experimental: Six to eight-week-old female Long Evans rats (Charles River, Wilmington, Mass.), weighing 180-200 grams, were used for all experiments. Prior to experimental manipulations, animals were anesthetized with a mixture of the anesthetics Ketaset (Fort Dodge laboratories, Fort Dodge, Iowa), Rompun (Miles, Shawnee Mission, Kans.), and Ace Promazine (Aveco, Fort Dodge, Iowa) administered subcutaneously at approximately 2.5 mg Ketaset, 1.6 mg Rompun, 0.2 mg Ace Promazine per animal per dose. Edema was induced in the foot by administration of either PAF or zymosan as follows. PAF (Sigma #P-1402) was freshly prepared for each experiment from a 19.1 mM stock solution stored in chloroform/methanol (9:1) at −20° C. Required volumes were dried down under N2, diluted 1:1000 in a buffer containing 150 mM NaCl, […] Tris pH 7.5, and 0.25% BSA, and sonicated for five minutes. Animals received 50 μl PAF (final dose of 0.96 nmoles) subcutaneously between the hind foot pads, and edema was assessed after 1 hour and again after 2 hours in some experiments. Zymosan A (Sigma #A-8800) was freshly prepared for each experiment as a suspension of 10 mg/ml in PBS. Animals received 50 μl of zymosan (final dose of 500 μg) subcutaneously between the hind foot pads and edema was assessed after 2 hours.
# Edema was quantitated by measuring the foot volume immediately prior to administration of PAF or zymosan and at indicated time point post-challenge with PAF or zymosan. Edema is expressed as the increase in foot volume in milliliters. Volume displacement measurements were made on anesthetized animals using a plethysmometer (UGO Basile, model #7150) which measures the displaced water volume of the immersed foot. […] Repeated measurements of the same foot using this technique indicate the precision to be within 5%.
# PAF-AH was injected locally between the foot pads, or systematically by IV injection in the tail vein. For local administration rats received 100 μl PAF-AH (4000-6000 U/ml) delivered subcutaneously between the right hind foot pads. Left feet served as controls by administration of 100 μl carrier (buffered salt solution). For systemic administration of PAF-AH, rats received the indicated units of PAF-AH in 300 μL of carrier administered IV in the tail vein. Controls received the appropriate volume of carrier IV in the tail vein.
# Rats (N=4) were injected with 100 μl of PAF-AH (4000-6000 U/ml) subcutaneously between the right foot pads. Left feet were injected with 100 μl carrier (buffered salt solution). Four other rats were injected only with carrier. All rats were immediately challenged with PAF via subcutaneous foot injection and foot volumes assessed 1 hour post-challenge. FIG. 4, wherein edema is expressed as average increase in foot volume (ml)±SEM for each treatment group, illustrates that PAF-induced foot edema is blocked by local administration of PAF-AH.
# Rats (N=4 per group) were pretreated IV with either PAF-AH (2000 U in 300 μl carrier) or carrier alone, 15 minutes prior to PAF challenge. Edema was assessed 1 and 2 hours after PAF challenge. FIG. 5, wherein edema is expressed as average increase in volume (ml)±SEM for each treatment group, illustrates that IV administration of PAF-AH blocked PAF induced foot edema at one and two hours post challenge. […] Mean volume increase for the PAF-AH treated group at two hours was 0.10 ml±0.08 (SEM), versus 0.56 ml±0.11 for carrier treated controls.
# as §1
# In two separate experiments, groups of rats (N=3 to 4 per group) were pretreated IV with either serial dilutions of PAF-AH or carrier control in a 300 μl volume, 15 minutes prior to PAF challenge. Both feet were challenged with PAF (as described above) and edema was assessed after 1 hour. […]
# [5] = Pharmacokinetics of PAF-AH in rat circulation (double mAb capture ELISA); format: in vivo; conditions: 2000 U IV, mean ±SEM
# Experimental: Four rats received 2000 U of PAF-AH by IV injection in a 300 μl volume. Plasma was collected at various time points and stored at 4° C. and plasma concentrations of PAF-AH were determined by ELISA using a double mAb capture assay. In brief, monoclonal antibody 90G11D (Example 13) was diluted in 50 mM carbonate buffer pH 9.6 at 100 ng/ml and immobilized on Immulon 4 ELISA plates overnight at 4° C. After extensive washing with PBS containing 0.05/Tween 20, the plates were blocked for 1 hour at room temperature with 0.5% fish skin gelatin (Sigma) diluted in PBS. Serum samples diluted in PBS with 15 mM CHAPS were added in duplicate to the washed ELISA plate and incubated for 1 hour at room temperature. After washing, a biotin conjugate of monoclonal antibody 90F2D (Example 13) was added to the wells at a concentration of 5 μg/ml diluted in PBS and incubated for 1 hour at room temperature. After washing, 50 μl of a 1:1000 dilution of ExtraAvidin (Sigma) was added to the wells and incubated for 1 hour at room temperature. After washing, wells were developed using OPD as a substrate and quantitated. Enzyme activity was then calculated from a standard curve. […]
molecule,measurement,setting,value
PAF-AH: Recombinant human plasma platelet-activating factor acetylhydrolase (beginning at Ile42) expressed in E. coli from construct pUC trp AH (protein) IQVLMAAASFGQTKIPRGNGPYSVGCTDLMFDHTNKGTFLRLYYPSQDNDRLDTLWIPNKEYFWGLSKFLGTHWLMGNILRLLFGSMTTPANWNSPLRPGEKYPLVVFSHGLGAFRTLYSAIGIDLASHGFIVAAVEHRDRSASATYYFKDQSAAEIGDKSWLYLRTLKQEEETHIRNEQVRQRAKECSQALSLILDIDHGKPVKNALDLKFDMEQLKDSIDREKIAVIGHSFGGATVIQTLSEDQRFRCGIALDAWMFPLGDEVYSRIPQPLFFINSEYFQYPANIIKMKKCYSPDKERKMITIRGSVHQNFADFTFATGKIIGHMLKLKGDIDSNVAIDLSNKASLAFLQKHLGLHKDFDQWDCLIEGDDENLIPGTNINTTNQHIMLQNSSGIEKYN,"Reduction in inflammation (vascular leakage, Evans blue)",[1],> 80%
same,Degradation of glutaroylPC,[2],rapidly degraded
same,Effect on zymosan induced edema,[3],failed to block zymosan induced edema
same,Mean increase in volume,"[4]; 2000 U IV 15 minutes prior to PAF, after 1 hour, ±SEM",0.08 ± 0.02 mL
same,Mean volume increase,"[4]; 2000 U IV 15 minutes prior to PAF, at two hours, ±SEM",0.10 mL
same,IV dose range found to dramatically reduce PAF mediated inflammation,[4]; IV injections,160-2000 U/rat
same,ID50 dosage,"[4]; IV, summary of dosing studies",40-80 U/rat
same,PAF-induced edema compared with PAF antagonists,[4]; PAF-AH 2000 U IV vs CV3988 or Alprazolam 2 mg IP,reduction in PAF-induced edema beyond that afforded by the established PAF antagonists CV3988 and Alprazolam
same,Plasma concentration predicted to block PAF-elicited edema,[4]; calculated from plasma volume for 180-200 gram rats,25-40 U/ml
same,Increase in foot volume,"[4]; local s.c. 100 μl PAF-AH (4000-6000 U/ml), 1 hour post PAF challenge, ±SEM",0.08 mL
same,Duration of protection from PAF induced edema,[4]; single 2000 U IV dose,at least 24 hours
same,Plasma enzyme level at one hour,[5],374 U/ml
